Results reported in US20190352664A1, “COMPOSITIONS AND METHODS FOR CONTROLLING GENE EXPRESSION” (priority 2017, published 2019).

B1: AT5G15950.1: 5′ UTR of transcript; Adenosylmethionine decarboxylase family protein (nucleic acid)
DNA: ACAATATCACAAACTCGTTTGCTCTTTTCATCATTACTAAATCATAAGCGGCTCTCAAGTTCTTTAGGGTTTCGAGTTTTCTCAATCTCCTACCTGATTAAGGTTAATTTCTTATCTTGGATCAATAACAAGAGAATTATAACTCCGGATTGTAATCAATATTCCTCTACATAAAAAGCGTGAATGAGATTATGATGGAATCGAAAGCTGGTAATAAGAAGTCAAGCAGCAATAGTTCCTTATGTTACGAAGCACCCCTTGGTTACAGCATTGAAGACGTTCGTCCTTTCGGTGGAATCAAGAAATTCAAATCTTCTGTCTACTCCAACTGCGCTAAGAGGCCTTCCTGAGTACTAGCCAGTTCCCTCCATAGCTTTTCAATTACAACAATCTCCTTTTCTCAAAGCTCTGGTTCCCCAAATCCTCTCGTCTTTTGTTTGCCCTCACAACAACAACAACAACGCAGAG
B2: AT1G59700.1: 5′ UTR of transcript; glutathione S-transferase TAU16 (nucleic acid)
DNA: ATTGTGTGGTGACAAGCAACACATGATATGTCCGTTTAGAAACAGACAAAATAAGAAGAAGAAGAAAGAGTCGTGGAGGATTCTTCATTCTTCCTCATCCTCTTCTTCACCGATTCATTAGAAACCAAATTACAAAAAAAAACGTCTATACACAAAAAAACAA
B3: AT1G30330.1: 5′ UTR of transcript; auxin response factor 6 (nucleic acid)
DNA: CTTCTTCTTCTGATTCTCATTTCAAATAAGAGAGAGAGAGAGAGAAGTAAGTAAAACTTTAGCAGAGAGAAGAATAAACAAATAATTATAGCACCGTCACGTCGCCGCCGTATTTCGTTACCGGAAAAAAAAAATCATTCTTCAACATAAAAATAAAAACAGTCTCTTTCTTTCTATCTTTGTCTATCTTTGATTATTCTCTGTGTACCCATGTTCTGCAACAGTTGAGCAAGTGCATGCCCCATATCTCTCTGTTTCTCATTTCCCGATCTTTGCATTAATCATATACTTCGCCTGAGATCTCGATTAAGCCAGCTTATAGAAGAAGAAACGGCACCAGCTTCTGTCGTTTTAGTTAGCTCGAGATCTGTGTTTCTTTTTTTCTTGGCTTCTGAGCTTTTGGCGGTGGTGGGTTTTTCTGGAGAAACCCAAACGACTATCAAAGTTTTGTTTTTTACAATTTTAAGTGGGAGTTATGAGTGGGGTGGATTAAGTAAGTTACAAGTATGAAGGAGTTGAAGATTCGAAGAAGCGGTTTTGAAGTCGGCGAGACCAAGATTGCGAGCTTATTTGGCTGATGATTTATTTCAGGGAAGAAGAAATAAATCTGTTTTTTTTAGGGTTTTTAGATTTGGTTGGTGAATGGGTGGGAGGTGGAGGGAAACAGTTAAAAAAGTTATGCTTTTAGTGTCTCTTCTTCATAATTACATTTGGGCATCTTGAAATCTTTGGATCTTTGAAGAAACAAAGTTGTGTTTTTTTTTTTGTTCTTTGTTGTTTGCTTTTTAAGTTAGAATAAAAA
B4: AT5G49980.1: 5′ UTR of transcript; auxin F-box protein 5 (nucleic acid)
DNA: AAAAAATAATCCCCAAATAATGGAGACGAAGTGGAGAGAGAAAGCTCCCACTCTCTCACACCCCAAAGCTTCTTCTTCTTCTTCCTCTTCTTCCTCTTCCTCTTCTCTAATCTGAATCCAAAGCCTCTCTCTTT
B5: AT1G12580.1: 5′ UTR of transcript; phosphoenolpyruvate carboxylase-related kinase 1 (nucleic acid)
DNA: GAGAGAGGACTGGGTCTGGTCTCTTCGCTGCAACCTATAGCTGTTGTTTGCTCTTCGACGGGATTCTCACTACTCTTTTGCCAAAAAAAAGAGATCGGAGGTTCCGAAGGTGAATGCAGCTTGCGATTTCATAGAAAAGAAGATTCGTTTGCTGGATTAGGCTTATTTGTGTATCATAGCTTTGAGGTTTTAACTGAGATTTATTGATAGTGGAACTTAGGTTTTCGAGAGGTGTGAACAGTTGGGTAT
B6: AT5G61010.1: 5′ UTR of transcript; exocyst subunit exo70 family protein E2 (nucleic acid)
DNA: TCTTTCCCTTCTTCTTCCCCAATAATCTCGCTGAAACTCTCTTGCTCTTGCTTCTAAAAATCTGTTCTTTGAGACTTTGATCACACAGTTATCAAAATCATAATCTCTTCTTTCCTGGTTTTTTTTTTTTTCTTCTTCTTCTTCCCGTTTCACGGTACGTTTACTCTGTTCGATCACCGAGTGTATGATAAAATGTTTCTGTGAAATCAAATAACATATCACTTTCTAATAAACATCAAAATTTCTCCTTTTTTACAGAAACAAGAAGTTTTTTTGGGAAAGCCGTTGACTTGACTTTTTCTTTGGGGTGTTGTGTGGGAGCTTATAGTATGGTACCATAAGTGGGAGCTTATAGTTTGGGGTGTTGTGTGGGAGCTTATAGTATGAGGAAAAATGTTAGATTTGAAGAATGCTTCACTGATTTTTTACCATAAGTATGTCAACTGGATTAAGCTTAAGTAGTAATGGTTTTTACTATGTTCATGTGGGGATTTCTCTTCCTCTCTGTTTACTTCATTCCGAGATGACTTGAGATTTTTTCAAAGTATAGTTCTTGGAGTTAAGCTTACCTAGTAATCACTTTATATAACATCCCTTCGTTTACATTTGTGCTTTCACCTGGAAACACTTTAGACTTTTCTCTCTTCTGCCGTGTGTATTTAGTTGTCTAGTCAAATTTAAGTTGAGTTTAGGCTCTAGTCTTTGGTTTTGGTT
B7: AT5G61010.1_3: uORF of AT5G61010.1; peptide SEQ ID NO: 38 (nucleic acid)
DNA: ATGTCAACTGGATTAAGCTTAAGTAGTAATGGTTTTTACTATGTTCATGTGGGGATTTCTCTTCCTCTCTGTTTACTTCATTCCGAGATGACTTGA
modifications: listed as DNA, chemistry not fully specified
B8: AT5G57460.1: 5′ UTR of transcript (nucleic acid)
DNA: GAAGATCTCATTTCTCTTTCTCCTTTTCTTCTCCGACGATTCTTCTCAGTTCTCAGATCTGATCGATTTCTTCATCAGATGTTTCAATCTAACCATTGAGATTGAATAGTCACCATTAGTAGAAGCTTCGAGATCAATTTCGAATCGGGATC
B9: ZIK3: R-motif-dependent gene; 5′ leader sequence tested in dual luciferase reporter (nucleic acid, listed as Arabidopsis thaliana)
DNA: ACTTGTTTCCTTATATATTCTTCTCCCTTTAAACATTTAATCTTTTCCTCTTCTACCATCTCCACAAATTCCAAACATCTCTCTCTCTTTCTCTCTCACACACAAAATTGCAGAAGAAGAAGAGTC
modifications: listed as DNA, chemistry not fully specified
B10: AT5G15950.1_1: uORF of AT5G15950.1; peptide SEQ ID NO: 35 (nucleic acid)
DNA: ATGATGGAATCGAAAGCTGGTAATAAGAAGTCAAGCAGCAATAGTTCCTTATGTTACGAAGCACCCCTTGGTTACAGCATTGAAGACGTTCGTCCTTTCGGTGGAATCAAGAAATTCAAATCTTCTGTCTACTCCAACTGCGCTAAGAGGCCTTCCTGA
B11: AT5G49980.1_1: uORF of AT5G49980.1; peptide SEQ ID NO: 36 (nucleic acid)
DNA: ATGGAGACGAAGTGGAGAGAGAAAGCTCCCACTCTCTCACACCCCAAAGCTTCTTCTTCTTCTTCCTCTTCTTCCTCTTCCTCTTCTCTAATCTGA
modifications: listed as DNA, chemistry not fully specified

Key:
Arabidopsis = assay: Ribo-seq and RNA-seq global translatome profiling (translational efficiency TE, mORF/uORF ribo-shift) upon elf18 treatment; assay type: in vivo; design: key to score (Ribo-shift): Up: ribo-shift up (i.e., increased mORF/uORF ratio); Down: ribo-shift down (i.e., decreased mORF/uORF ratio); conditions: elf18 vs Mock; for score (TE change): translational efficiency fold change, listed as shows 5′ UTR of the transcript; for score (Ribo-shift): shift of mORF/uORF ratio, per uORF
dual luciferase reporter = assay: Dual luciferase assay (LUC/RLUC), transient expression; assay type: in vivo, N. benthamiana; conditions: 5′ leader sequence reporters

Molecule	score (TE change) (Arabidopsis)	also measured
B1	TEdown (389 genes displayed decreased TEfc (|z|≥1.5))	–
B2	TEdown (389 genes displayed decreased TEfc (|z|≥1.5))	–
B3	TEdown (389 genes displayed decreased TEfc (|z|≥1.5))	–
B4	TEdown (389 genes displayed decreased TEfc (|z|≥1.5))	–
B5	TEup (448 had increased TEfc)	–
B6	TEdown (389 genes displayed decreased TEfc (|z|≥1.5))	–
B7	–	score (Ribo-shift) (Arabidopsis): Down
B8	TEup (448 had increased TEfc)	–
B9	–	TE when PAB2 was co-expressed (dual luciferase reporter): lower TE
B10	–	score (Ribo-shift) (Arabidopsis): Down
B11	–	score (Ribo-shift) (Arabidopsis): Down
